Three molecules from publication PMC3313934, “Pinpointing P450s Associated with Pyrethroid Metabolism in the Dengue Vector, Aedes aegypti: Developing New Tools to Combat Insecticide Resistance” (PLoS Neglected Tropical Diseases, 2012) can be followed below.

The target of one data set is T1, CYP6Z2 (Anopheles gambiae, UniProt A8I285).
T1 construct: recombinant membrane preparation from earlier work; cytochrome b5 added
T1 sequence (A8I285 1-492): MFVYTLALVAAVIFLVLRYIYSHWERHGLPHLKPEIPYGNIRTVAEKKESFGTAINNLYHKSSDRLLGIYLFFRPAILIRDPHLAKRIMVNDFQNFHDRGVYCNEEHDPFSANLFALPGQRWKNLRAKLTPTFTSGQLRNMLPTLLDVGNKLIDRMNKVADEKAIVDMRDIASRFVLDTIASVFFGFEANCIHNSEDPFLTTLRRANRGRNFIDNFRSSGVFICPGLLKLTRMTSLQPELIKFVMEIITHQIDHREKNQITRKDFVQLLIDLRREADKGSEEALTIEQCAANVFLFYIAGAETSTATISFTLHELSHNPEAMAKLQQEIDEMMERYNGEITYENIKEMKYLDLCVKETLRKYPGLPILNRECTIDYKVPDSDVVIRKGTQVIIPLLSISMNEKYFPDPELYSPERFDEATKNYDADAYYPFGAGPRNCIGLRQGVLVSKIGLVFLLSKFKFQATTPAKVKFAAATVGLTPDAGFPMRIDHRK
The data set is described as follows: resorufin fluorescence turnover, recombinant membranes. Type of data set: biochemical. The following applies: 5 µM substrate, NADPH regeneration, cyt b5, 0.1 M KPi pH 7.4, 25°C.

Substrate in data set [1]: CC1(C)[C@H](C(=O)O[C@H](C#N)c2cccc(Oc3ccccc3)c2)[C@@H]1C=C(Br)Br
Kind of data set: HPLC substrate depletion, recombinant E. coli membranes, Michaelis-Menten fit. The class given is biochemical, Aedes aegypti. Particulars: 0.1 µM P450, 0.8 µM cyt b5, NADPH regeneration, 200 mM Tris-HCl pH 7.4, 30°C, 10 min, apparent. From the text: (§1) HPLC substrate depletion, recombinant E. coli membranes, Michaelis-Menten fit on CYP9J32

Substrate in data set [2]: CC1(C)C(C=C(Cl)Cl)C1C(=O)OCc1cccc(Oc2ccccc2)c1
The data set is described as above. The class given is biochemical, Aedes aegypti. The following applies: 0.1 µM P450, 0.8 µM cyt b5, NADPH regeneration, 200 mM Tris-HCl pH 7.4, 30°C, 10 min, apparent.
Text: as §1

Substrate in data set [3]: CC1(C)[C@H](C(=O)O[C@H](C#N)c2cccc(Oc3ccccc3)c2)[C@@H]1C=C(Br)Br
The data set is described as above. Type of data set: biochemical, Aedes aegypti. The following applies: 0.1 µM P450, 0.8 µM cyt b5, NADPH regeneration, 200 mM Tris-HCl pH 7.4, 30°C, 10 min, apparent. From the text: (§2) HPLC substrate depletion, recombinant E. coli membranes, Michaelis-Menten fit on CYP9J26
The source holds these as a separate data set.

Substrate in data set [4]: CC1(C)C(C=C(Cl)Cl)C1C(=O)OCc1cccc(Oc2ccccc2)c1
The description is as above. Type of data set: biochemical, Aedes aegypti. The following applies: 0.1 µM P450, 0.8 µM cyt b5, NADPH regeneration, 200 mM Tris-HCl pH 7.4, 30°C, 10 min, apparent.
Text: as §2
This is another data set of the same source.

As usually defined, the Km is the substrate concentration at which the rate is half of its maximum. The kcat is the number of substrate molecules converted per active site and unit of time at saturation.

Turning to `COc1ccc2nc3ccc(=O)cc-3oc2c1` [RME], the “resorufin fluorescence turnover, recombinant membranes” value at CYP6Z2 was “greatest activity towards RME for the resorufin ethers and L-ME for the proluciferins”.

B1: CYP9J32 (Aedes aegypti) (protein)
chain: VIYRQVKKHYDYFHDKPIPSMATVPLLGSTGPLMTKRCTFNDFIQTIYNKYPSAKIFGLFDMTTKMFVLRDPEVIKKITVKDFEYFVDRRPLFGANKEDDGNENILFNKTLVGMVDQRWRDMRAILSPAFTGSKMRAMFELIEQYCTQMVPILKEQSAESGYVDYEMKDFFSRVANDIIATCAFGLQVESLKSRDNEFYTMGKQMMNFNRFIVLLRVMGLRFFPSLMIKMGVDIVDREQNQYFSKIIKEAVRARETHGIVRPDMIHLLMQARKGTLKHQQETTESTAGFATVEESDVGKSVVSKTMSEPEFIAQCLIFFLAGFDTVSTGMLFMAYELALNPDIQQKLYEEIAQTNKELGGKPATYDTLQKMKYMDMVVSESLRMWPVAAFDRKCGRDYVLDDGAGLKFTIDAGTCIWVPVYGIHRDPKYYPNPDKFEPERFSDENRGKIDMTMYMPFGMGPRNCIGSRFALMEIKAIMYALLLNFSIERNEKTQVPLKLVKGFVGLQVENGLHLRFKKRK
notes: full-length, ompA leader with Ala-Gly linker at N-terminus, E. coli DH5alpha membranes; co-expressed An. gambiae CPR, added An. gambiae cytochrome b5
As to B1, the Km in data set [1] was 5.2 ± 2.1 µM; in data set [2] it was 2.3 ± 1.1 µM. Besides, the results for the kcat in data set [1] and in data set [2] were 0.05 ± 0.00833 s⁻¹ and 0.0133 ± 0.00167 s⁻¹, respectively.

B2: CYP9J26 (Aedes aegypti) (protein)
chain: MEVELLHVGVLVAIVAFLYRWITRNNDYFHDKPIPSMAVTPFLGASGPLLLRKVTFNDFVQSIYNKYPGVKVFGMFDTITPFFVIRDPELIKQIGIKDFDHFVDHRPTFGLDDETAEHPKALFRKTLFSMTGQRWKEMRATLSPAFTGSKMRQMFSLMSECCDEMMKHYLDKAKGSGRVEVEMKDLLSRISINVIASCAFGIKVDCFKEQEHEFLYHGRKMMGFGRPIVIARMLAMRVFPKFAAKFGIDLLDREQANYFTHVFQETIRARESHGYIRHDMIDLLLQARKGTLKYQEEKDDQEGFATVQESDVGKADVSKSMTEAEMIAQCLIFFLGGFDTVSTCAMFTAYELVRNPEVQHKLYEEIKQTEKELEGKPLSYDALQKMKYMDMVVSETLRMWPLAPATDRLCTQDYTIDDGQGVRFTIDKGTCVWFPAAGLHHDPQYFPNPEKFDPERFNDENKRNINLGAYLPFGIGPRNCIGSRFALMEVKAVMYFILLKFSFVRGAKTQIPMQLRKGFTNLGPENGMHVELKLR
notes: full-length, ompA-Ala-Pro leader at N-terminus, pCW-ori+, E. coli DH5alpha membranes; co-expressed An. gambiae CPR, added An. gambiae cytochrome b5
B2: in data set [3], the Michaelis-Menten constant (Km) was found to be 1.2 ± 0.2 µM and the kcat came to 0.00367 ± 0.000167 s⁻¹. Also, in data set [4], the Km is 4.2 ± 0.9 µM and the catalytic constant (kcat) came out at 0.01 ± 0.00167 s⁻¹.
